This passage reports % displacement, IC50 and Ki results from patent US20240165282A1, “CONFORMATIONAL CONSTRAINED SOMATOSTATIN RECEPTOR 3 PEPTIDE LIGANDS AND THEIR CONJUGATES AND USES THEREOF” (STARGET PHARMA LTD., priority 2021, published 2024).

*1 amine or outer side, *2 acyl side, *3 side chain or, on linkers, in order; H or OH if unused. Bridges are numbered along the chain shown (N, C = ends). Where no end group is shown, it is not given here. [ ]: non-standard residue; d: D form. The star is where a group is joined. DOTA = O=C(O)CN1CCN(CC(=O)O)CCN(CC(=O)*)CCN(CC(=O)O)CC1; N(2-mercaptoethyl)Gly = O=C(CN(CCS[*:3])[*:1])[*:2]; 4Amb = NCc1ccc(C(=O)O)cc1; NTEG = not defined here; Aoc = NCCCCCCCC(=O)O; GABA = NCCCC(=O)O

Common to all, as to assay: 125I-Tyr11-SRIF-14 displacement
For assay [1], the target named is human cloned somatostatin receptor 3 (human) (UniProt P32745).
Assay [2] has as its target human cloned somatostatin receptor 1 (human) (UniProt P30872).
Assay [3] addresses human cloned somatostatin receptor 2 (human) (UniProt P30874).
In assay [4] the target is human cloned somatostatin receptor 4 (human) (UniProt P31391).
Assay [5] deals with human cloned somatostatin receptor 5 (human) (UniProt P35346).
Chain of human cloned somatostatin receptor 5 (human) (P35346 whole entry): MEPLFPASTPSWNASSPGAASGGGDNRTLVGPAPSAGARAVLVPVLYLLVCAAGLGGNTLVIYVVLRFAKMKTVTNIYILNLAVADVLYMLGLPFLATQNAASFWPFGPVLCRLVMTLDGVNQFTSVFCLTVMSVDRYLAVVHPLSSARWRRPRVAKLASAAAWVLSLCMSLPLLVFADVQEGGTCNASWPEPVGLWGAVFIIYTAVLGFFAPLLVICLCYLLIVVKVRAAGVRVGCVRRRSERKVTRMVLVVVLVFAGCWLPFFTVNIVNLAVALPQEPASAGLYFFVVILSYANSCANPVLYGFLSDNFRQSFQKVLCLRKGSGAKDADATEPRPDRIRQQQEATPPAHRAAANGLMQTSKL

Chain of human cloned somatostatin receptor 3 (human) (P32745 whole entry): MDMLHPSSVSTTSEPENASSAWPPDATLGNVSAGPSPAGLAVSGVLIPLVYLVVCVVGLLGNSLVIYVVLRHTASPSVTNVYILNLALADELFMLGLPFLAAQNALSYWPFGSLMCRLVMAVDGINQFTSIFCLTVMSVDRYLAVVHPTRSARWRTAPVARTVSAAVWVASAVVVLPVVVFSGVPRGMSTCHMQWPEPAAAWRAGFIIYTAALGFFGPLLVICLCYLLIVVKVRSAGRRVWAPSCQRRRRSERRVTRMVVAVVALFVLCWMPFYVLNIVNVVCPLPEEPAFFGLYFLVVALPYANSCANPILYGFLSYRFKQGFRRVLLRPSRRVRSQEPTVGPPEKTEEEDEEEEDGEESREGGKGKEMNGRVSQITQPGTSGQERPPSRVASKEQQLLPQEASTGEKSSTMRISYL
Chain of human cloned somatostatin receptor 4 (human) (P31391 whole entry): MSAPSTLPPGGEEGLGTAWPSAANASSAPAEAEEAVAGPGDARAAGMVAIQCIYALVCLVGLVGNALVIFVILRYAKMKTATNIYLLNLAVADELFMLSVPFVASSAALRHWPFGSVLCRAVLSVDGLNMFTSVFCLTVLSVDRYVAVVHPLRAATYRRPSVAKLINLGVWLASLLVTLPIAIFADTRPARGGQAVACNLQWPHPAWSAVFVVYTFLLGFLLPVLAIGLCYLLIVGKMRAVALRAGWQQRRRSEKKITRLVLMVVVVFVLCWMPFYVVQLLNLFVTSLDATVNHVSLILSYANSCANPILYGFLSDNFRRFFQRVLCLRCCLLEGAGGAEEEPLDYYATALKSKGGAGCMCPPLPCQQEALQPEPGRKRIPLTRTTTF
Chain of human cloned somatostatin receptor 2 (human) (P30874 whole entry): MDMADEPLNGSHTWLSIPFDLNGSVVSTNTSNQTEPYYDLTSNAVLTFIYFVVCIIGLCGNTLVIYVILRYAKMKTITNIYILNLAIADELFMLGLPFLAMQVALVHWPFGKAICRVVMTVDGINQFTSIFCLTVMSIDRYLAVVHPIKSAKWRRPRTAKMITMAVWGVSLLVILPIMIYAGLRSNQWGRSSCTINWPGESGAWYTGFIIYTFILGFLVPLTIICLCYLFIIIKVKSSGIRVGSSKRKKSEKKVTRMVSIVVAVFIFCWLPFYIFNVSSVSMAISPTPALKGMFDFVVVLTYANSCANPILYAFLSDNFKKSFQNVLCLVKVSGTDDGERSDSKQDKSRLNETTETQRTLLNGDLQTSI
Chain of human cloned somatostatin receptor 1 (human) (P30872 whole entry): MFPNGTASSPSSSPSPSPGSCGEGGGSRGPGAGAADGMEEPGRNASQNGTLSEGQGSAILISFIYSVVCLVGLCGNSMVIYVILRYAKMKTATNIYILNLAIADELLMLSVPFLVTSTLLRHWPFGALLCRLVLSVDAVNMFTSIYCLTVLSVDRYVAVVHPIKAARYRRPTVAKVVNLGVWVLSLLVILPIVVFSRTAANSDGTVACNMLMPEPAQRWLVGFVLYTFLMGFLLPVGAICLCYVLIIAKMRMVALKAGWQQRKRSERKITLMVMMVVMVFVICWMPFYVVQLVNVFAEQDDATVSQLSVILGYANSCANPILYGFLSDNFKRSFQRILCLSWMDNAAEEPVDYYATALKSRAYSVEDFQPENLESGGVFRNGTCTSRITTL

Regarding {DOTA}-[dF]KCF[dW]KTF[NTEG]-NH2 (disulfide 3-9; reading uncertain; also: Ga chelated by DOTA) [SEQ ID NO: 10], in assay [1], the % displacement at 1 nM came to 27%; the % displacement at 10 nM was determined as 75%; the 50% inhibitory concentration (IC50) (as a rule, the concentration that gives 50% inhibition) turned out to be 2.4 nM.
{DOTA-4Amb}-[dF]RCF[dW]KTF[N(2-mercaptoethyl)Gly]-NH2 (disulfide 3-9) [SEQ ID NO: 18]: the % displacement at 1 nM in assay [2] came to 0%; in assay [3], 0%; in assay [1] it was 49%; in assay [4], 0%; in assay [5], 0%. The % displacement at 10 nM in assay [2] is 4%; in assay [3], 0%; in assay [1] it was 85%; in assay [4], 8%; in assay [5], 0%.

B1: SEQ ID NO: 16 (peptide)
peptide: K[dF]RCF[dW]KTF[N(2-mercaptoethyl)Gly]-NH2
modifications: disulfide 4-10; not fully specified (residue 1, N-terminus); printed as (DOTA)2-Lys1-D-Phe2-Arg3-Cys4-Phe5-D-Trp6-Lys7-Thr8-Phe9-NTEG10-NH2 (cyclo 3-9); also: (DOTA)2 on Lys1, sites not given here
As for B1, the % displacement at 1 nM in assay [2] was 0%; in assay [3], 6%; in assay [1], 47%; in assay [4], 0%; in assay [5], 0%. The % displacement at 10 nM in assay [2] amounted to 5%; in assay [3], 2%; in assay [1] it was 88%; in assay [4] it was 0%; in assay [5], 3%.

B2: SEQ ID NO: 11 (peptide)
peptide: {DOTA}-G[dF]RCF[dW]KTF[N(2-mercaptoethyl)Gly]-NH2
modifications: disulfide 4-10
SMILES: C[C@@H](O)[C@@H]1NC(=O)[C@H](CCCCN)NC(=O)[C@@H](Cc2c[nH]c3ccccc23)NC(=O)[C@H](Cc2ccccc2)NC(=O)[C@@H](NC(=O)[C@H](CCCNC(=N)N)NC(=O)[C@@H](Cc2ccccc2)NC(=O)CNC(=O)CN2CCN(CC(=O)O)CCN(CC(=O)O)CCN(CC(=O)O)CC2)CSSCCN(CC(N)=O)C(=O)[C@H](Cc2ccccc2)NC1=O
Consider B2, for which the % displacement at 1 nM in assay [2] is 2%; in assay [3], 0%; in assay [1], 47%; in assay [4], 0%; in assay [5] it was 0%. Further, the % displacement at 10 nM in assay [2] came to 19%; in assay [3], 0%; in assay [1], 88%; in assay [4], 0%; in assay [5], 0%.
With {DOTA}-[dF]RCF[dW]KTF[N(2-mercaptoethyl)Gly]-NH2 (disulfide 3-9; also: Cu complex of DOTA) [SEQ ID NO: 5], the IC50 in assay [2] is 780 nM; in assay [3] it was 420 nM; in assay [1] it was 0.9 nM; in assay [5] it was 150 nM. In addition, the values for the Ki in assay [2], in assay [3] and in assay [5] were 640 nM, 220 nM and 82 nM, respectively.
Take {DOTA-GABA}-[dF]RCF[dW]KTF[N(2-mercaptoethyl)Gly]-NH2 (disulfide 3-9; also: Ga complex of DOTA) [SEQ ID NO: 8]: the % displacement at 1 nM is 0% in assay [2]; 0% in assay [3]; 61% in assay [1]; 5% in assay [4]; 0% in assay [5]. The % displacement at 10 nM is 10% in assay [2]; 10% in assay [3]; 88% in assay [1]; 4% in assay [4]; 15% in assay [5].
Regarding {DOTA-Aoc}-[dF]RCF[dW]KTF[N(2-mercaptoethyl)Gly]-NH2 (disulfide 3-9) [SEQ ID NO: 15], the % displacement at 1 nM in assay [2] was 6%; in assay [3] it was 1%; in assay [1], 49%; in assay [4] it was 0%; in assay [5] it was 0%. Besides, the % displacement at 10 nM worked out at 18% in assay [2]; 0% in assay [3]; 87% in assay [1]; 0% in assay [4]; 0% in assay [5].

B3: SEQ ID NO: 12 (peptide)
peptide: {DOTA}-A[dF]RCF[dW]KTF[N(2-mercaptoethyl)Gly]-NH2
modifications: disulfide 4-10
SMILES: C[C@H](NC(=O)CN1CCN(CC(=O)O)CCN(CC(=O)O)CCN(CC(=O)O)CC1)C(=O)N[C@H](Cc1ccccc1)C(=O)N[C@@H](CCCNC(=N)N)C(=O)N[C@H]1CSSCCN(CC(N)=O)C(=O)[C@H](Cc2ccccc2)NC(=O)[C@H]([C@@H](C)O)NC(=O)[C@H](CCCCN)NC(=O)[C@@H](Cc2c[nH]c3ccccc23)NC(=O)[C@H](Cc2ccccc2)NC1=O
On to B3, for which the % displacement at 1 nM in assay [2] turned out to be 0%; in assay [3] it was 0%; in assay [1], 64%; in assay [4], 0%; in assay [5], 0%. Also, the % displacement at 10 nM is 10% in assay [2]; 0% in assay [3]; 93% in assay [1]; 0% in assay [4]; 13% in assay [5].

B4: SEQ ID NO: 2 (peptide)
peptide: H-[dF]KCF[dW]KTF[N(2-mercaptoethyl)Gly]-NH2
modifications: disulfide 3-9
SMILES: C[C@@H](O)[C@@H]1NC(=O)[C@H](CCCCN)NC(=O)[C@@H](Cc2c[nH]c3ccccc23)NC(=O)[C@H](Cc2ccccc2)NC(=O)[C@@H](NC(=O)[C@H](CCCCN)NC(=O)[C@H](N)Cc2ccccc2)CSSCCN(CC(N)=O)C(=O)[C@H](Cc2ccccc2)NC1=O
For the molecule B4, in assay [1], the IC50 was 0.73 nM; the Ki (usually the dissociation constant of the complex between target and ligand, obtained from inhibition or displacement) is 0.25 nM.

B5: SEQ ID NO: 1 (peptide)
peptide: H-[dF]RCF[dW]KTF[N(2-mercaptoethyl)Gly]-NH2
modifications: disulfide 3-9
SMILES: C[C@@H](O)[C@@H]1NC(=O)[C@H](CCCCN)NC(=O)[C@@H](Cc2c[nH]c3ccccc23)NC(=O)[C@H](Cc2ccccc2)NC(=O)[C@@H](NC(=O)[C@H](CCCNC(=N)N)NC(=O)[C@H](N)Cc2ccccc2)CSSCCN(CC(N)=O)C(=O)[C@H](Cc2ccccc2)NC1=O
As for B5, the IC50 was found to be 180 nM in assay [2], 390 nM in assay [3], 0.43 nM in assay [1] and 310 nM in assay [5]. In addition, the Ki in assay [2] is 150 nM; in assay [3], 320 nM; in assay [1], 0.15 nM; in assay [5], 170 nM.

B6: SEQ ID NO: 9 (peptide)
peptide: {DOTA}-[dF]KCF[dW]KTF[N(2-mercaptoethyl)Gly]-NH2
modifications: disulfide 3-9
SMILES: C[C@@H](O)[C@@H]1NC(=O)[C@H](CCCCN)NC(=O)[C@@H](Cc2c[nH]c3ccccc23)NC(=O)[C@H](Cc2ccccc2)NC(=O)[C@@H](NC(=O)[C@H](CCCCN)NC(=O)[C@@H](Cc2ccccc2)NC(=O)CN2CCN(CC(=O)O)CCN(CC(=O)O)CCN(CC(=O)O)CC2)CSSCCN(CC(N)=O)C(=O)[C@H](Cc2ccccc2)NC1=O
Take B6: the % displacement at 1 nM is 4% in assay [2]; 0% in assay [3]; 59% in assay [1]; 0% in assay [4]; 0% in assay [5]. In addition, the % displacement at 10 nM in assay [2] came to 10%; in assay [3], 0%; in assay [1], 91%; in assay [4], 0%; in assay [5], 12%. Further, the IC50 in assay [1] came to 1 nM.
{DOTA}-[dF]RCF[dW]KTF[N(2-mercaptoethyl)Gly]-NH2 (disulfide 3-9; also: Lu complex of DOTA) [SEQ ID NO: 6]: the IC50 came to 310 nM in assay [2], 210 nM in assay [3], 0.9 nM in assay [1] and 86 nM in assay [5]. Further, the Ki in assay [2] was determined as 260 nM; in assay [3] it was 110 nM; in assay [5], 48 nM.

B7: SEQ ID NO: 24 (peptide)
peptide: {DOTA}-[dF]KCY[dW]KTF[N(2-mercaptoethyl)Gly]-NH2
modifications: disulfide 3-9
SMILES: C[C@@H](O)[C@@H]1NC(=O)[C@H](CCCCN)NC(=O)[C@@H](Cc2c[nH]c3ccccc23)NC(=O)[C@H](Cc2ccc(O)cc2)NC(=O)[C@@H](NC(=O)[C@H](CCCCN)NC(=O)[C@@H](Cc2ccccc2)NC(=O)CN2CCN(CC(=O)O)CCN(CC(=O)O)CCN(CC(=O)O)CC2)CSSCCN(CC(N)=O)C(=O)[C@H](Cc2ccccc2)NC1=O
As for B7, in assay [1], the % displacement at 1 nM came out at 66% and the % displacement at 10 nM worked out at 88%.
